Experimental data as given in patent publication US20200024330A1.

Assays:
Test in all cases: cell-based or functional assay
[1] = biological target: HIV-1 92RW020 envelope glycoprotein (Env) (HIV-1)
[2] = biological target: HIV-1 93UG077 envelope protein (Env) on pseudovirus (HIV-1)
[3] = biological target: HIV-1 Env of isolate MGRM-D-013 (clade D) (HIV-1)
[4] = biological target: HIV-1 Env of isolate MGRM-G-024 (clade G pseudovirus) (HIV-1)
[5] = biological target: HIV-1 Env of isolate MGRM-G-025 (clade G pseudovirus) (HIV-1)
[6] = biological target: HIV-1 Env of isolate MGRM-G-027 (clade G pseudovirus) (HIV-1)
[7] = biological target: HIV-1 Env of pseudovirus MGRM-Chronic-B-003, clade B (HIV-1)
[8] = biological target: HIV-1 Env of pseudovirus NL43, clade B (HIV-1)
[9] = biological target: HIV-1 MGRM-A-004 envelope glycoprotein (Env) (HIV-1)
[10] = biological target: HIV-1 MGRM-C-013 Env (HIV-1)
[11] = biological target: HIV-1 MGRM-F1-014 Env (pseudovirus) (HIV-1)
[12] = biological target: HIV-1 MGRM-F1-023 Env (pseudovirus) (HIV-1)
[13] = biological target: HIV-1 Env of isolate 92UG037 (HIV-1)
[14] = biological target: HIV-1 Env of isolate 93TH305 (pseudovirus) (HIV-1 isolate 93TH305, subtype B)
[15] = biological target: HIV-1 Env of isolate CAAN.A2 (HIV-1)
[16] = biological target: HIV-1 Env of isolate MGRM-A-010 (clade A), on pseudovirus (HIV-1)
[17] = biological target: HIV-1 Env of isolate MGRM-A-013 (clade A), on pseudovirus (HIV-1)
[18] = biological target: HIV-1 Env of isolate MGRM-AG-012 (CRF_AG), on pseudovirus (HIV-1)
[19] = biological target: HIV-1 Env of isolate MGRM-C-012 (HIV-1)
[20] = biological target: HIV-1 Env of isolate MGRM-Chronic-B-001 (HIV-1)
[21] = biological target: HIV-1 Env of isolate MGRM-Chronic-B-003 (HIV-1)
[22] = biological target: HIV-1 Env of isolate MGRM-Chronic-B-004 (HIV-1)
[23] = biological target: HIV-1 Env of isolate MGRM-Chronic-B-008 (HIV-1)
[24] = biological target: HIV-1 Env of isolate MGRM-D-008 (HIV-1)
[25] = biological target: HIV-1 Env of isolate MGRM-D-021 (HIV-1)
[26] = biological target: HIV-1 Env of isolate MGRM-D-022 (HIV-1)
[27] = biological target: HIV-1 Env of isolate MGRM-D-029 (subtype D), on pseudovirus (HIV-1)
[28] = biological target: HIV-1 Env of isolate MGRM-F1-004 (subtype F), on pseudovirus (HIV-1)
[29] = biological target: HIV-1 Env of isolate MGRM-F1-015 (subtype F), on pseudovirus (HIV-1)
[30] = biological target: HIV-1 Env of isolate MGRM-F1-017 (subtype F), on pseudovirus (HIV-1)
[31] = biological target: HIV-1 Env of isolate MGRM-F1-021 (subtype F), on pseudovirus (HIV-1)
[32] = biological target: HIV-1 Env of isolate SC422661.8 (HIV-1)
[33] = biological target: HIV-1 JRCSF envelope glycoprotein (Env) on pseudovirus (HIV-1) (UniProt P20871)

Sequence of 5345_I01 (PGT-137) (antibody) (VH): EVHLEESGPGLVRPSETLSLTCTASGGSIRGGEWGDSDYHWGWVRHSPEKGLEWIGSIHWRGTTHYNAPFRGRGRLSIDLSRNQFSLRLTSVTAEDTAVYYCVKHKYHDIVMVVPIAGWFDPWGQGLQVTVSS
Sequence of 5345_I01 (PGT-137) (antibody) (VL): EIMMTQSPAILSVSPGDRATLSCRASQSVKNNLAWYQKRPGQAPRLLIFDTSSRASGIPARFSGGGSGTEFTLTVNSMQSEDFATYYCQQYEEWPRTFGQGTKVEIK
Sequence of 1443_C16 (PG16) (TCN-116) (antibody) (VH): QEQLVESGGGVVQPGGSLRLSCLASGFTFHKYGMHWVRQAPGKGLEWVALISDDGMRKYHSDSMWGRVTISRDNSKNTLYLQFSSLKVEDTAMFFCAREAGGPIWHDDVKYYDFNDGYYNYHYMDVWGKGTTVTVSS
Sequence of 1443_C16 (PG16) (TCN-116) (antibody) (VL): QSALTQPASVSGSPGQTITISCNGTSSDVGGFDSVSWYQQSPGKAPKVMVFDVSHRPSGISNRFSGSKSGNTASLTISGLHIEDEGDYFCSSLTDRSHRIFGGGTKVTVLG

2F5 (antibody)
IC50 (µg/ml), pseudovirus neutralization [1]: 3.36 µg/mL
neutralization IC50 [2]: 4.45 µg/mL
IC50 (µg/ml), pseudovirus neutralization [3]: 2.12 µg/mL
IC50 (µg/ml), pseudovirus neutralization [4]: 1.07 µg/mL
IC50 (µg/ml), pseudovirus neutralization [5]: > 50 µg/mL
IC50 (µg/ml), pseudovirus neutralization [6]: 0.28 µg/mL
IC50 (µg/ml), pseudovirus neutralization [7]: 1 µg/mL
IC50 (µg/ml), pseudovirus neutralization [8]: 2.02 µg/mL
IC50 (µg/ml), pseudovirus neutralization [9]: 7.49 µg/mL
IC50 [10]: 18.4 µg/mL
IC50 (µg/ml), pseudovirus neutralization [11]: 15.1 µg/mL
IC50 (µg/ml), pseudovirus neutralization [12]: 1.78 µg/mL

2G12 (antibody)
IC50 (µg/ml), pseudovirus neutralization [1]: 0.48 µg/mL
neutralization IC50 [2]: > 50 µg/mL
IC50 (µg/ml), pseudovirus neutralization [3]: > 50 µg/mL
IC50 (µg/ml), pseudovirus neutralization [4]: > 50 µg/mL
IC50 (µg/ml), pseudovirus neutralization [5]: 31.9 µg/mL
IC50 (µg/ml), pseudovirus neutralization [6]: > 50 µg/mL
IC50 (µg/ml), pseudovirus neutralization [7]: 0.06 µg/mL
IC50 (µg/ml), pseudovirus neutralization [8]: 0.49 µg/mL
IC50 (µg/ml), pseudovirus neutralization [9]: > 50 µg/mL
IC50 [10]: > 50 µg/mL
IC50 (µg/ml), pseudovirus neutralization [11]: > 50 µg/mL
IC50 (µg/ml), pseudovirus neutralization [12]: 9.23 µg/mL

4E10 (antibody)
IC50 (µg/ml), pseudovirus neutralization [1]: 4.54 µg/mL
neutralization IC50 [2]: 11.2 µg/mL
IC50 (µg/ml), pseudovirus neutralization [3]: 5.38 µg/mL
IC50 (µg/ml), pseudovirus neutralization [4]: 1.57 µg/mL
IC50 (µg/ml), pseudovirus neutralization [5]: 1.7 µg/mL
IC50 (µg/ml), pseudovirus neutralization [6]: 1.19 µg/mL
IC50 (µg/ml), pseudovirus neutralization [7]: 3.5 µg/mL
IC50 (µg/ml), pseudovirus neutralization [8]: 4.67 µg/mL
IC50 (µg/ml), pseudovirus neutralization [9]: 3.14 µg/mL
IC50 [10]: 2.1 µg/mL
IC50 (µg/ml), pseudovirus neutralization [11]: 7.36 µg/mL
IC50 (µg/ml), pseudovirus neutralization [12]: 0.44 µg/mL

1443_C16 (PG16) (TCN-116) (antibody)
IC50 (µg/ml), pseudovirus neutralization [1]: 0.28 µg/mL
neutralization IC50 [2]: > 50 µg/mL
IC50 (µg/ml), pseudovirus neutralization [3]: 0.11 µg/mL
IC50 (µg/ml), pseudovirus neutralization [4]: 0.01 µg/mL
IC50 (µg/ml), pseudovirus neutralization [5]: > 50 µg/mL
IC50 (µg/ml), pseudovirus neutralization [6]: 0.01 µg/mL
IC50 (µg/ml), pseudovirus neutralization [7]: 0.19 µg/mL
IC50 (µg/ml), pseudovirus neutralization [8]: 0.02 µg/mL
IC50 (µg/ml), pseudovirus neutralization [9]: 0.04 µg/mL
IC50 [10]: > 50 µg/mL
IC50 (µg/ml), pseudovirus neutralization [11]: 0.01 µg/mL
IC50 (µg/ml), pseudovirus neutralization [12]: > 50 µg/mL

1495_C14 (PGC14) (antibody)
IC50 (µg/ml), pseudovirus neutralization [1]: 46 µg/mL
neutralization IC50 [2]: > 50 µg/mL
IC50 (µg/ml), pseudovirus neutralization [3]: > 50 µg/mL
IC50 (µg/ml), pseudovirus neutralization [4]: > 50 µg/mL
IC50 (µg/ml), pseudovirus neutralization [5]: > 50 µg/mL
IC50 (µg/ml), pseudovirus neutralization [6]: > 50 µg/mL
IC50 (µg/ml), pseudovirus neutralization [7]: > 50 µg/mL
IC50 (µg/ml), pseudovirus neutralization [8]: 40 µg/mL
IC50 (µg/ml), pseudovirus neutralization [9]: > 50 µg/mL
IC50 [10]: > 50 µg/mL
IC50 (µg/ml), pseudovirus neutralization [11]: > 50 µg/mL
IC50 (µg/ml), pseudovirus neutralization [12]: > 50 µg/mL

5147_N06 (PGT-130) (antibody)
neutralization IC50 [13]: 0.061 µg/mL
IC50 (µg/mL) neutralization [14]: 0.021 µg/mL
IC50 [15]: > 50 µg/mL
IC50, single-round pseudovirus neutralization [16]: 0.005 µg/mL
IC50, single-round pseudovirus neutralization [17]: > 50 µg/mL
IC50, single-round pseudovirus neutralization [18]: > 50 µg/mL
IC50 [19]: > 50 µg/mL
IC50 [20]: > 50 µg/mL
IC50 [21]: > 50 µg/mL
IC50 [22]: 0.01 µg/mL
IC50 [23]: 5.18 µg/mL
IC50 [24]: > 50 µg/mL
IC50 [25]: 0.156 µg/mL
IC50 [26]: > 50 µg/mL
IC50, pseudovirus neutralization [27]: > 50 µg/mL
IC50, pseudovirus neutralization [28]: 0.023 µg/mL
IC50, pseudovirus neutralization [29]: > 50 µg/mL
IC50, pseudovirus neutralization [30]: > 50 µg/mL
IC50, pseudovirus neutralization [31]: > 50 µg/mL
IC50 [32]: > 50 µg/mL
IC50 (ug/ml), neutralizing activity [33]: 0.0089 µg/mL

5343_B08 (PGT-135) (antibody)
neutralization IC50 [13]: 3.67 µg/mL
IC50 (µg/mL) neutralization [14]: > 50 µg/mL
IC50 [15]: 5.15 µg/mL
IC50, single-round pseudovirus neutralization [16]: > 50 µg/mL
IC50, single-round pseudovirus neutralization [17]: > 50 µg/mL
IC50, single-round pseudovirus neutralization [18]: 41.9 µg/mL
IC50 [19]: 0.017 µg/mL
IC50 [20]: > 50 µg/mL
IC50 [21]: > 50 µg/mL
IC50 [22]: > 50 µg/mL
IC50 [23]: > 50 µg/mL
IC50 [24]: > 50 µg/mL
IC50 [25]: > 50 µg/mL
IC50 [26]: > 50 µg/mL
IC50, pseudovirus neutralization [27]: 30.8 µg/mL
IC50, pseudovirus neutralization [28]: 0.211 µg/mL
IC50, pseudovirus neutralization [29]: 1.11 µg/mL
IC50, pseudovirus neutralization [30]: 7.79 µg/mL
IC50, pseudovirus neutralization [31]: 0.065 µg/mL
IC50 [32]: 21.8 µg/mL

5345_I01 (PGT-137) (antibody)
neutralization IC50 [13]: > 50 µg/mL
IC50 (µg/mL) neutralization [14]: > 50 µg/mL
IC50 [15]: > 50 µg/mL
IC50, single-round pseudovirus neutralization [16]: > 50 µg/mL
IC50, single-round pseudovirus neutralization [17]: 49.2 µg/mL
IC50, single-round pseudovirus neutralization [18]: > 50 µg/mL
IC50 [19]: 0.102 µg/mL
IC50 [20]: > 50 µg/mL
IC50 [21]: > 50 µg/mL
IC50 [22]: > 50 µg/mL
IC50 [23]: > 50 µg/mL
IC50 [24]: > 50 µg/mL
IC50 [25]: > 50 µg/mL
IC50 [26]: > 50 µg/mL
IC50, pseudovirus neutralization [27]: > 50 µg/mL
IC50, pseudovirus neutralization [28]: 40.3 µg/mL
IC50, pseudovirus neutralization [29]: > 50 µg/mL
IC50, pseudovirus neutralization [30]: > 50 µg/mL
IC50, pseudovirus neutralization [31]: > 50 µg/mL
IC50 [32]: > 50 µg/mL

b12 (antibody)
IC50 (µg/ml), pseudovirus neutralization [1]: > 50 µg/mL
neutralization IC50 [2]: 41.1 µg/mL
IC50 (µg/ml), pseudovirus neutralization [3]: > 50 µg/mL
IC50 (µg/ml), pseudovirus neutralization [4]: 2.38 µg/mL
IC50 (µg/ml), pseudovirus neutralization [5]: > 50 µg/mL
IC50 (µg/ml), pseudovirus neutralization [6]: > 50 µg/mL
IC50 (µg/ml), pseudovirus neutralization [7]: > 50 µg/mL
IC50 (µg/ml), pseudovirus neutralization [8]: 0.17 µg/mL
IC50 (µg/ml), pseudovirus neutralization [9]: > 50 µg/mL
IC50 [10]: > 50 µg/mL
IC50 (µg/ml), pseudovirus neutralization [11]: > 50 µg/mL
IC50 (µg/ml), pseudovirus neutralization [12]: > 50 µg/mL
